Laboratory results from IntAct's records for PubMed 16606821.

B1: Insulin-induced gene 1 protein (Homo sapiens), O15503-1 (parent)
chain: MPRLHDHFWSCSCAHSARRRGPPRASAAGLAAKVGEMINVSVSGPSLLAAHGAPDADPAPRGRSAAMSGPEPGSPYPNTWHHRLLQRSLVLFSVGVVLALVLNLLQIQRNVTLFPEEVIATIFSSAWWVPPCCGTAAAVVGLLYPCIDSHLGEPHKFKREWASVMRCIAVFVGINHASAKLDFANNVQLSLTLAALSLGLWWTFDRSRSGLGLGITIAFLATLITQFLVYNGVYQYTSPDFLYIRSWLPCIFFSGGVTVGNIGRQLAMGVPEKPHSD
partner: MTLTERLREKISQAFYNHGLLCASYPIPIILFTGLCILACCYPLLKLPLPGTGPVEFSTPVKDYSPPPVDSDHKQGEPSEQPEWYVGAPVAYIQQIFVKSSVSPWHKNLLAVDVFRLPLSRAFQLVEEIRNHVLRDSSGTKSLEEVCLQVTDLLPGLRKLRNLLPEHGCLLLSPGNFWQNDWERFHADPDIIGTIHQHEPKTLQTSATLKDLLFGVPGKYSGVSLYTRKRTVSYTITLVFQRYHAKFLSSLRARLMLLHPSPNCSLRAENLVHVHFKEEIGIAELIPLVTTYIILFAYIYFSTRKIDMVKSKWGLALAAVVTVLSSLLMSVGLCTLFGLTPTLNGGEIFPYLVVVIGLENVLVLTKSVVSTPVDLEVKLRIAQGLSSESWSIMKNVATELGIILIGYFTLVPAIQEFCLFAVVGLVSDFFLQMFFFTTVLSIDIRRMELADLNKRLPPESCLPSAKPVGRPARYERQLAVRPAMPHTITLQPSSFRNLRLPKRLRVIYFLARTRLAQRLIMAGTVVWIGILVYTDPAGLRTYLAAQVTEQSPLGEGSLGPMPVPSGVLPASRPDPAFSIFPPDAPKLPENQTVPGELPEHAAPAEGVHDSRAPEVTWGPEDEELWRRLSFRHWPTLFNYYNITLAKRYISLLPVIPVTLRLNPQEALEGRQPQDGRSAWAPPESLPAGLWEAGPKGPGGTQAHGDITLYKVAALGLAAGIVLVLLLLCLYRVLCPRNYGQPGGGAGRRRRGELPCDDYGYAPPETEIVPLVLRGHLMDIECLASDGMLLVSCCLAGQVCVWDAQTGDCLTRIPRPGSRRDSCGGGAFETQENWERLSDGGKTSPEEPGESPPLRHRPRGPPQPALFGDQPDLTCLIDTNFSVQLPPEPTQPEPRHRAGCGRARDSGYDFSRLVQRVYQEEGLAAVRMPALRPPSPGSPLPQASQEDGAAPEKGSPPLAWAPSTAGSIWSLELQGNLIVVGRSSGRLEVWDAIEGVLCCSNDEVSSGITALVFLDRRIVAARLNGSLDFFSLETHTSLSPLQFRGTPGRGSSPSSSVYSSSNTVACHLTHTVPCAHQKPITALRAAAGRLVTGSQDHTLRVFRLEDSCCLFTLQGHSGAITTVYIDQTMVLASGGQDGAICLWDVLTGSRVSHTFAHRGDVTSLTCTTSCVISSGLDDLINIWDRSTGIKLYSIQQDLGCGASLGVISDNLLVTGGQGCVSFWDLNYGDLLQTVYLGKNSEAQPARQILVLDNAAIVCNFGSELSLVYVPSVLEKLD

Variants of: B1
Conditions: with scap_crigr SCAP

effect of a mutation on the interaction	Variant
disrupting interaction strength	MPRLHDHFWSCSCAHSARRRGPPRASAAGLAAKVGEMINVSVSGPSLLAAHGAPDADPAPRGRSAAMSGPEPGSPYPNTWHHRLLQRSLVLFSVGVVLALVLNLLQIQRNVTLFPEEVIATIFSSAWWVPPCCGTAAAVVGLLYPCIDSHLGEPHKFKREWASVMRCIAVFVGINHASAKLDFANNVQLSLTLAALSLGLWWTFARSRSGLGLGITIAFLATLITQFLVYNGVYQYTSPDFLYIRSWLPCIFFSGGVTVGNIGRQLAMGVPEKPHSD [D205A]
